Assay results published in patent publication US7572600B2, “Enzymatic activities in chemokine-mediated inflammation” (Chemocentryx, Inc., priority 2004, dated 2009).
Like-named read-outs stand apart in the source and are kept apart here. Where no end group is shown, it is not given here.

How the values were obtained:
[1] = biological target: T1, FPRL1 (Homo sapiens, UniProt P25090); test: Receptor signaling (calcium mobilization) in L1.2-FPRL1 cells; type: cell-based; parameters: expressed in transfected cells; details: for Designation and FPRL1 Activity: SHAAGtide and truncated/other variants; for calcium mobilization in the FPRL1 transfectant: L1.2 cells stably expressing human FPRL1, undigested
T1 sequence (P25090 1-351): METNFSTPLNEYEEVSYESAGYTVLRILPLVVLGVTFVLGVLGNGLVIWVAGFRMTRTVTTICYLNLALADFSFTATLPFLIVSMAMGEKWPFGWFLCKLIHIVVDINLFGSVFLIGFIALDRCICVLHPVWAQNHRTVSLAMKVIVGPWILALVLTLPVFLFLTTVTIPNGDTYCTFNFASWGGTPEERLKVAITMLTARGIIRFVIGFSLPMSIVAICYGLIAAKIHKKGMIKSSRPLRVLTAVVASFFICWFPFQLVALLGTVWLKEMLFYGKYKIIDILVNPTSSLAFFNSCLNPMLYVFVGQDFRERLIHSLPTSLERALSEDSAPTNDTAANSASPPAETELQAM
Protocol: (§1) Receptor signaling assay. For individual measurements, cells were loaded for 45 min at room temperature with 2 μM indo-1/AM (Invitrogen, Carlsbad Calif.) in culture medium, then washed with 10 ml PBS and resuspended at 10^6 cells/ml in HBSS containing 0.1% BSA. Cytosolic calcium levels were determined using a Photon Technology International fluorimeter (excitation at 350 nm, ratio of dual emission at 400 and 490 nm). For measuring calcium dose responses, cells were analyzed with a Fluorometric Imaging Plate Reader 384 (FLIPR^384) (Molecular Devices, Sunnyvale, Calif.). Cells were loaded for 1 hr at 37° C. with 5 μM fluo-4 in HBSS with 0.1% BSA, then washed, transferred to black-wall 96-well plates, and subsequently excited at 505 nm with emission recorded at 530 nm with a standard protocol provided by the manufacture. Cells were stimulated with agonists 20 s after the monitoring of fluorescence began. Data were analyzed and plotted in arbitrary units of fluorescence using Prism. To ensure that responses were specific to FPRL1, we utilized a selective small-molecule antagonist of human FPRL1, generated by ChemoCentryx, which was optimized from a high throughput compound library screening approach.
Since FPRL1 has been reported to interact with low affinity and/or potency with a spectrum of potential pathogenic ligands of viral, bacterial and endogenous origin, we performed comparative functional analyses to determine the precise functional domain for the SHAAGtide (FIG. 14). SHAAGtides containing N-terminal and C-terminal truncations and extensions were synthesized, and potencies for receptor signaling in L1.2-FPRL1 cells were tested. […] After removal of the N-terminal amino acid (Met) from SHAAGtide, its potency is reduced approximately 10 fold. Removal of the first two N-terminal amino acids (Met-Leu) totally abolished SHAAGtide's activity on FPRL1. Conversely, removal of the C-terminal three amino residues (AAG) from SHAAGtide had no effect on its activity on FPRL1. Removal of the C-terminal six residues (LSHAAG) reduced the peptide's potency only 3-fold. Many other purported naturally-occurring FPRL1 ligands, including serum amyloid A (SAA), beta-amyloid protein 42, lipoxin A4 and the bacterial tripeptide fMLP were tested.

[2] = test system: THP-1 cells; test: THP-1 chemotaxis assay; type: cell-based, human; details: for EC50: THP-1 cells
Protocol: Chemotaxis assay. L1.2-CCR1 transfectants, THP-1 cells, human monocytes and human neutrophils were collected by centrifugation and resuspended in HBSS containing 0.1% BSA. Chemotaxis assays were performed in 96-well ChemoTx® microplates (Neuroprobe, Rockville, Md.) as follows. Chemokines were added to the lower wells (final volume 29 μL), and 20 μL of cell suspension (5×10^6 cells/mL) was added to the polycarbonate filter (3 μm pore size for neutrophils, 5 μm for other 3 cell types). After incubation at 37° C. in the presence of 5% CO2 for 1 hr (neutrophils), 90 min (monocytes) or 2 h (THP-1 and L1.2-CCR1), cells were removed from the upper surface of the filter by scraping. Cells that migrated into the lower chamber were quantified by using the CyQuant cell proliferation assay kit (Molecular Probes, Eugene, Oreg.) and analyzed with a Tecan (Durham, N.C.) fluorimeter (excitation at 480 nm, emission at 530 nm). Data were analyzed and plotted in arbitrary units of fluorescence using Prism (GraphPad Software, San Diego, Calif.).

[3] = test system: human neutrophils; test: Calcium mobilization in freshly isolated human neutrophils; type: cell-based
Protocol: (§2) Calcium Mobilization Assay. Cells were loaded for 1 hour with 2 μM indo-1/AM dye (Molecular Probes, Eugene, Oreg.) in culture medium, then washed with 10 ml PBS and resuspended at 10^6/ml in HBSS containing 1% FBS. Cytosolic calcium responses were determined using a Photon Technology International (Lawrenceville, N.J.) fluorimeter, with excitation at 350 nm and dual emission at 400 and 490 nm. Alternatively, cells were loaded with 5 μg/ml Fluo-4 AM dye (Molecular Probes, Eugene, Oreg.), then washed and analyzed on a Fluorometric Imaging Plate Reader 384 (FLIPR^384 Molecular Devices, Sunnyvale, Calif.), with 505 nm excitation and 530 nm emission.
as §1

[4] = biological target: T2, CCR1 (Homo sapiens, UniProt P32246); test: Calcium mobilization in murine L1.2 cells expressing human CCR1; type: cell-based; parameters: expressed in transfected cells; host or cells: murine L1.2 cells (G-418 selected transfectant); details: L1.2-CCR1 cells
T2 sequence (P32246 1-355): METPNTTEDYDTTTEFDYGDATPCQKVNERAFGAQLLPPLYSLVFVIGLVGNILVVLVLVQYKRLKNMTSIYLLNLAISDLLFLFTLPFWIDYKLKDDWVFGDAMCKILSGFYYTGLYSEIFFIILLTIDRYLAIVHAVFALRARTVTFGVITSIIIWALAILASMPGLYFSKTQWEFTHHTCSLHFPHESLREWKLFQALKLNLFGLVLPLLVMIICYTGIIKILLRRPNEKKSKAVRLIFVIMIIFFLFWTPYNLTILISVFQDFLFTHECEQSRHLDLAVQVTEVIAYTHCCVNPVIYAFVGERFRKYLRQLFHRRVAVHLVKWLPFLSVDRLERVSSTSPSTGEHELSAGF
Protocol: as §2, §1

[5] = test system: human monocytes; test: Calcium mobilization in freshly isolated human monocytes; type: cell-based; details: undigested chemokine or peptide, 100 nM (CCL23β up to 250 nM)
Protocol: as §2, §1

[6] = biological target: T2, CCR1; test: Competition binding with 125I-MIP-1α on human monocytes; parameters: endogenous in cells; host or cells: human CD14+ monocytes from buffy coats
Protocol: Binding assay. Competition binding studies were conducted using monocytes, L1.2-CCR1 or L1.2-FPRL1 cells. Cells were incubated for 3 hr at 4° C. with ^125I-MIP-1α (final concentration ˜0.05 nM) or ^125I-WKYMVm (final concentration ˜0.01 nM) in buffer (25 mM HEPES, 140 mM NaCl, 1 mM CaCl2, 5 mM MgCl2 and 0.2% BSA, adjusted to pH 7.1) in the presence of increasing amounts of unlabeled chemokine. Reactions were aspirated onto PEI-treated GF/B glass filters using a cell harvester (Packard). Filters were washed twice (25 mM HEPES, 500 mM NaCl, 1 mM CaCl2, 5 mM MgCl2, adjusted to pH 7.1). Scintillant (MicroScint-10; 35 μl) was added to the filters and counted in a Packard Topcount scintillation counter. Data were analyzed and plotted using Prism (GraphPad Software, San Diego, Calif.).

[7] = undigested chemokine or peptide (100 nM)
[8] = 10 nM input chemokine, after digestion with proteases and fluids
[9] = 10 nM, undigested or recombinant chemokine
[10] = chemokine after digestion with PMN sup #1, read-out: EC50, chemotaxis
[11] = chemokine after digestion with chymase, read-out: EC50, chemotaxis

In the case of LWRRKIGPQMTLSH [CCXP11], the “Designation and FPRL1 Activity” value [1] is reported as “Moderate”.

With WRRKIG [CCXP10] the “Designation and FPRL1 Activity” value [1] was “Low activity”.

WRRKIGPQM [CCXP9] was tested, and the “Designation and FPRL1 Activity” value [1] was “Low activity”.

In the case of WRRKIGPQMTLSHAAG [CCXP7], the “Designation and FPRL1 Activity” value [1] is reported as “Low activity”.

For IGPQMTLSHAAG [CCXP4], the “Designation and FPRL1 Activity” value [1] was “Low activity”.

For “CCL5/RANTES: traditional CCR1 ligand chemokine”, the EC50 ([2]; 2 hr, recombinant undigested chemokine, read-out: EC50, chemotaxis) was 0.5 nM and the calcium mobilization [3, 7] was “not”.

MLWRRKIGPQM [CCXP8] was tested, and the “Designation and FPRL1 Activity” value [1] was “Moderate”.

With RRKIGPQMTLSHAAG [CCXP2] the “Designation and FPRL1 Activity” value [1] was “Low activity”.

With MLWRRKIGPQMTLSH [CCXP3] the “Designation and FPRL1 Activity” value [1] was “High activity”.

With MLWRRKIGPQMTLSHAAY [CCXP6] the “Designation and FPRL1 Activity” value [1] was “High activity”.

For MLWRRKIGPQMT [CCXP5], the “Designation and FPRL1 Activity” value [1] was “Moderate”.

In the case of “1-42 substrate peptide: synthetic 42-residue peptide consisting of the CCL23β N-terminal (1-24) and SHAAGtide (25-42) domains (MKVSVAALSCLMLVTALGSQARVTKDAETEFMMSKLPLENPV)”, the “calcium mobilization in the FPRL1 transfectant” value [1] is reported as “unable to induce calcium mobilization”.

B1: CCL15/MIP-1δ: recombinant full-length human chemokine CCL15 (92aa) (protein, listed as Homo sapiens)
chain: QFINDAETELMMSKLPLENPVVLNSFHFAADCCTSYISQSIPCSLMKSYFETSSECSKPGVIFLTKKGRQVCAKPSGPGVQDCMKKLKPYSI
In the case of B1, the calcium mobilization [4, 8] is reported as “greater amount of calcium”, the calcium mobilization [4, 9] is reported as “little calcium mobilization” and the “fold increase in chemokine potency after cleavage” value ([2]; THP-1 cell migration, cleavage by chymase or synovial fluid) is reported as “approximately 1000 fold”. It also gave an EC50 ([2]; after cleavage by chymase or synovial fluid, read-out: EC50, cell migration) of 0.05 to 0.06 nM, an EC50 [2, 10] of 0.25 nM and an EC50 [2, 11] of 0.05 nM. The calcium mobilization ([3]; digestions at 30-50 nM) was “induced calcium mobilization”.

B2: CCL15Δ24/LKN-1: recombinant CCL15/MIP-1δ lacking the N-terminal 24 residues (68aa) (protein)
chain: SFHFAADCCTSYISQSIPCSLMKSYFETSSECSKPGVIFLTKKGRQVCAKPSGPGVQDCMKKLKPYSI
In the case of B2, the calcium mobilization [4, 9] is reported as “substantially greater response”, the calcium mobilization [3, 7] is reported as “respond” and the calcium mobilization ([3]; undigested chemokine or peptide (100 nM), listed as CCL15 Δ24/leukotactin) is reported as “only moderate calcium responses”.

B3: CCL3/MIP-1α: traditional CCR1 ligand chemokine; unlabelled homologous competitor in binding (protein)
chain: ADTPTACCFSYTSRQIPQNFIADYFETSSQCSKPGVIFLTKRSRQVCADPSEEWVQKYVSDLELSA
B3 was tested, and the calcium mobilization [3, 7] was “not and only moderate calcium responses”.

B4: CCL23/CKβ8: recombinant full-length human chemokine CCL23 (22-120), 99-residue protein (protein, listed as Homo sapiens)
chain: RVTKDAETEFMMSKLPLENPVLLDRFHATSADCCISYTPRSIPCSLLESYFETNSECSKPGVIFLTKKGRRFCANPSDKQVQVCMRMLKLDTRIKTRKN
With B4 the calcium mobilization [5] was “strong calcium responses”, the “inhibition of 125I-MIP-1α binding” value [6] was “moderate competitors” and the calcium mobilization [4, 8] was “uniformly active”. For the same molecule, the calcium mobilization [4, 9] was “either not active or weakly active”, the EC50 [2, 10] was 0.15 nM and the EC50 [2, 11] was 0.05 nM. For the same molecule, the EC50 ([2]; chemokine after digestion with synovial fluid, read-out: EC50, chemotaxis) was 0.25 nM and the “fold decrease of EC50 by chymase” value ([2]; THP-1 chemotaxis) was 50 fold.

B5: CCL23β: alternatively spliced form of CCL23, 116-residue protein; recombinant, R&D Systems special order (protein, listed as Homo sapiens)
chain: MKVSVAALSCLMLVTALGSQARVTKDAETEFMMSKLPLENPVLLDMLWRRKIGPQMTLSHAAGFHATSADCCISYTPRSIPCSLLESYFETNSECSKPGVIFLTKKGRRFCANPSDKQVQVCMRMLKLDTRIKTRKN
B5 was tested, and the calcium mobilization [5] was “very weak responses”, the “inhibition of 125I-MIP-1α binding” value [6] was “lowest binding activity” and the “calcium mobilization in the FPRL1 transfectant” value [1] was “unable to induce calcium mobilization”.
